Blank lines part the entries; values can stand above or below the molecule they belong to.
Key:
[1] = biological target: CD44 on the surface of U937-C5aR cells and human neutrophils (human) (UniProt P16070); assay: Biacore SPR, U937-C5aR cells pretreated with 25 µg/ml anti-CD44, DBP immobilized
[2] = biological target: CD44 on the surface of U937-C5aR cells and human neutrophils (human) (UniProt P16070); assay: AlexaFluor 488-labeled DBP binding to U937-C5aR cells pretreated with antibody, fluorescence
[3] = biological target: annexin A2 on the surface of U937-C5aR cells and human neutrophils (human) (UniProt P07355); assay: as above
[4] = biological target: cell surface DBP binding site complex; assay: Biacore SPR, U937-C5aR cells pretreated with 0.5 µM peptide 2, DBP immobilized (competitor: immobilized DBP)

Sequence of annexin A2 on the surface of U937-C5aR cells and human neutrophils (human) (P07355 2-339): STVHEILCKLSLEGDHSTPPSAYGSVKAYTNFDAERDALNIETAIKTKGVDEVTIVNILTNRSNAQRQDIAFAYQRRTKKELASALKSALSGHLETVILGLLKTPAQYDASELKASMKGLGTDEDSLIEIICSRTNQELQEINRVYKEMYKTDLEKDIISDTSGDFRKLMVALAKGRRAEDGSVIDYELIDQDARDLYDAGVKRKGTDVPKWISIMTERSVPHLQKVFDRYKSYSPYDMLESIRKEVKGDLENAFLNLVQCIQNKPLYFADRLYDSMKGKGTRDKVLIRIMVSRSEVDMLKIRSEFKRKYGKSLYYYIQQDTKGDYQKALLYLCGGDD

percent inhibition of cell binding to immobilized DBP [1]: 50%
percent blocking of DBP binding to cells [2]: 50%
Molecule: affinity-purified goat polyclonal anti-CD44 (N-18), Santa Cruz Biotechnology (antibody)

percent blocking of DBP binding to cells [3]: 50%
Molecule: affinity-purified goat polyclonal anti-annexin A2 (C-16), Santa Cruz Biotechnology (antibody)

percent inhibition of cell binding to immobilized DBP [4]: 50%
Molecule: NYGQAPLSLLVSYTKSYLSMVGS [DBP peptide 2 (residues 150-172)]
